Key:
[1] = biological target: T1, human αVβ3 integrin, purified (human, UniProt P06756 31-1048; P05106 27-788); test: saturation binding ELISA on αvβ3 coated plate, non-linear fit, n = 6
T1 construct: mature; Detergent-extracted heterodimer purified from human placenta at Centocor, or bought from Chemicon; coated on plates or in solution; also called alphaVbeta3; aVb3
Method: (§1) αᵥβ₃ or αᵥβ₅ integrin was diluted to 1 μg/ml in Tris-buffered saline (TBS, 10 mM Tris, 100 mM NaCl, pH 7.5) containing 2 mM calcium chloride (TBS/Ca⁺⁺) and coated at 50 μl per well onto 96 well polystyrene Linbro plates (Flow/ICN) overnight at 4° C. Plates were washed with TBS/Ca⁺⁺ and blocked with 1% bovine serum albumin (BSA) in TBS/Ca⁺⁺ for 1 h at room temperature. Fifty microliters of diluted antibody was added in triplicate to coated wells and incubated for 2 h at 37° C. […] Plates were washed three times, and developed with o-phenylenediamine dihydrochloride substrate solution (OPD, Sigma) consisting of 0.1 M citric acid, 0.2M sodium phosphate, 0.01% H₂O₂ and 1 mg/ml OPD. Color development was stopped after 15 min at room temperature with 0.3 N H₂SO₄, and plates were read at OD₄₉₀ nm in the Molecular Dynamics plate reader.

[2] = biological target: T1, human αVβ3 integrin, purified; test: EIA, purified antibody titrated on αVβ3 coated plates
[3] = biological target: T2, αvβ5 integrin on HT-29 human colon carcinoma cells (human, UniProt P06756 31-1048; P18084 24-799); test: 125-I antibody saturation binding to HT-29 cells
T2 construct: whole, on cells; also called HT-29 cells; HT29 cells
Method: (§2) Cells were plated 2 days prior to experiment, and 1×10⁵ cells/well at the time of study. […] Nonspecific binding was determined using 100× cold mAb in media. Cells were washed 3× and counted for bound radioactivity. Each curve represents 4-5 separate studies, and each data point in an experiment was the mean of triplicate samples.

[4] = biological target: T3, integrin a5b1 from human placenta extract (human, UniProt P08648 42-1049; P05556 21-798); test: CNTO 95 affinity column on human placenta extract, Western blot with anti-integrin a5
T3 construct: mature; only the a5 subunit was probed; also called a5 containing heterodimers
Method: (§3) Western blot. […] The filters were blocked with 5% nonfat dry milk in TBS containing 0.05% Tween 20 (wash buffer) at room temperature for 1 hour and then incubated with anti-integrin antibodies (anti-a5 (P-19) Santa Cruz, goat polyclonal IgG 1:500 dilution; anti-aIIb, Chemicon, mouse monoclonal IgG1, 1:1000 dilution; anti-αV (Q-20), Santa Cruz, goat polyclonal IgG, 1:500 dilution; anti-b1 (4B7R), Santa Cruz, mouse monoclonal IgG1, 1:500 dilution; anti-b1 (N-20), Santa Cruz, goat polyclonal IgG, 1:500 dilution; anti-β3 (H-96), Santa Cruz, rabbit polyclonal IgG, 1:500 dilution; anti-β5 (H-96), Santa Cruz, rabbit polyclonal IgG, 1:500 dilution; anti-β6 (H-110), Santa Cruz, rabbit polyclonal IgG, 1:250 dilution). After thorough washing, filters were incubated with appropriate peroxidase-conjugated secondary antibodies (1:20000 dilution). The antigen-antibody complexes were visualized using SuperSignal West Pico Chemiluminescent Substrate kit (Pierce).

[5] = biological target: T4, integrin aIIbb3 from human placenta extract (human, UniProt P08514 32-1039; P05106 27-788); test: CNTO 95 affinity column on human placenta extract, Western blot with anti-aIIb
T4 construct: mature; only the aIIb subunit was probed; also called aIIbβ3; GPIIb/IIIa
Method: as §3

[6] = biological target: T5, human αVβ5 integrin, purified (human, UniProt P06756 31-1048; P18084 24-799); test: saturation binding ELISA on αvβ5 coated plate, non-linear fit, n = 6
T5 construct: Bought from Chemicon (Triton or octyl formulation); also called alphaVbeta5; aVb5
Method: as §1

[7] = biological target: T5, human αVβ5 integrin, purified; test: saturation binding ELISA on αvβ5 coated plate, non-linear fit, six experiments
Method: as §1

[8] = biological target: T2, αvβ5 integrin on HT-29 human colon …; test: 125-I antibody saturation binding to HT-29 cells, n = 5
Method: as §2

[9] = biological target: T5, human αVβ5 integrin, purified; test: comparison of the KD values on integrin coated plates
[10] = biological target: T2, αvβ5 integrin on HT-29 human colon …; test: 125-I antibody saturation binding to HT-29 cells, rounded value
Method: as §2

T5 sequence (P06756 31-1048, form in doubt, chain 1 of 2): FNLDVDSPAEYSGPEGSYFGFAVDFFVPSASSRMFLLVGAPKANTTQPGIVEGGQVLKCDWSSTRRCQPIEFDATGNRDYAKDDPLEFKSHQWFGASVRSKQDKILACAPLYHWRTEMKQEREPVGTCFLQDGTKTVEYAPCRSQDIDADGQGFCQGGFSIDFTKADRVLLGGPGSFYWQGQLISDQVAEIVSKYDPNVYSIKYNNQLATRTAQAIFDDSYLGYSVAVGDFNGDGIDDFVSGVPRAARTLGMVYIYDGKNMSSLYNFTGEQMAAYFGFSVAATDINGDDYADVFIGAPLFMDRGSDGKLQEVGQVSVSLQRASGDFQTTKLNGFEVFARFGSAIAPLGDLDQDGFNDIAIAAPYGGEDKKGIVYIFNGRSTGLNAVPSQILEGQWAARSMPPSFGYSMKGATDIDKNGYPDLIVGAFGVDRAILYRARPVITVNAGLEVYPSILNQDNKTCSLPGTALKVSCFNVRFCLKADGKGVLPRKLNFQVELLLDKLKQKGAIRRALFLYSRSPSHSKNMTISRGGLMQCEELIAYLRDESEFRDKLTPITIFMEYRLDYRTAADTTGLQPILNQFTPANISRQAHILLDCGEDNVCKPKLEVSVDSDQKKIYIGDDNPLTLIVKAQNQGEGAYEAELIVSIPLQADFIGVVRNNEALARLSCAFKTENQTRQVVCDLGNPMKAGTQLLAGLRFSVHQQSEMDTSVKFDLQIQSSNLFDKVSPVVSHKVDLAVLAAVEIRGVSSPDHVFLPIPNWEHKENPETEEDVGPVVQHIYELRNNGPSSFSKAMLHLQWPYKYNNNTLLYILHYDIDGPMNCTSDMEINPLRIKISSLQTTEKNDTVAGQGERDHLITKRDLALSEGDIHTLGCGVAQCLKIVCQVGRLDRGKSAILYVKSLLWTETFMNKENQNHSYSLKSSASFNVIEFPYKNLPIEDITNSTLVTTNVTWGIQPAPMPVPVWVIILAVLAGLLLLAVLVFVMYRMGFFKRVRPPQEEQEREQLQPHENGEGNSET
T5 sequence (P18084 24-799, form in doubt, chain 2 of 2): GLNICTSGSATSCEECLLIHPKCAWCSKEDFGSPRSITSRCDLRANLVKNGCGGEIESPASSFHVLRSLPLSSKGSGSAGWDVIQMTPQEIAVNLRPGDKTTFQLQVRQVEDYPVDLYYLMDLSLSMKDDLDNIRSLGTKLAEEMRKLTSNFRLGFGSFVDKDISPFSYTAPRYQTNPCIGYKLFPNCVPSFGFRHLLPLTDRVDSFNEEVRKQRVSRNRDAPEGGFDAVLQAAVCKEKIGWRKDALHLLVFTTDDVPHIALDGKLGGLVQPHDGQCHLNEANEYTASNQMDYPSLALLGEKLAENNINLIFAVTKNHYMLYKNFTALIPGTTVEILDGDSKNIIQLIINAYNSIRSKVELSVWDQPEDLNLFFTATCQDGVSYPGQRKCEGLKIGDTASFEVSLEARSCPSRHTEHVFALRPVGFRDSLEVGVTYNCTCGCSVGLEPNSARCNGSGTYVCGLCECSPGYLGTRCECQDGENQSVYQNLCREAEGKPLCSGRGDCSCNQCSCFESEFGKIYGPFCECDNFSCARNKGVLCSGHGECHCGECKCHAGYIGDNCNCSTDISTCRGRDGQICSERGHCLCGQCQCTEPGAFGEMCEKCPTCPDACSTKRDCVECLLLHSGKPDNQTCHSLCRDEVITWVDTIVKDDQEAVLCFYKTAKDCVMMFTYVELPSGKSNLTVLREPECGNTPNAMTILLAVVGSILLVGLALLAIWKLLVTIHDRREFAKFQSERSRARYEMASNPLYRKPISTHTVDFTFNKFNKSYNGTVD
T2 sequence (P06756 31-1048, chain 1 of 2): as the sequence (P06756 31-1048, form in doubt, chain 1 of 2) above
T2 sequence (P18084 24-799, chain 2 of 2): as the sequence (P18084 24-799, form in doubt, chain 2 of 2) above
T1 sequence (P06756 31-1048, form in doubt, chain 1 of 2): as the sequence (P06756 31-1048, form in doubt, chain 1 of 2) above
T1 sequence (P05106 27-788, form in doubt, chain 2 of 2): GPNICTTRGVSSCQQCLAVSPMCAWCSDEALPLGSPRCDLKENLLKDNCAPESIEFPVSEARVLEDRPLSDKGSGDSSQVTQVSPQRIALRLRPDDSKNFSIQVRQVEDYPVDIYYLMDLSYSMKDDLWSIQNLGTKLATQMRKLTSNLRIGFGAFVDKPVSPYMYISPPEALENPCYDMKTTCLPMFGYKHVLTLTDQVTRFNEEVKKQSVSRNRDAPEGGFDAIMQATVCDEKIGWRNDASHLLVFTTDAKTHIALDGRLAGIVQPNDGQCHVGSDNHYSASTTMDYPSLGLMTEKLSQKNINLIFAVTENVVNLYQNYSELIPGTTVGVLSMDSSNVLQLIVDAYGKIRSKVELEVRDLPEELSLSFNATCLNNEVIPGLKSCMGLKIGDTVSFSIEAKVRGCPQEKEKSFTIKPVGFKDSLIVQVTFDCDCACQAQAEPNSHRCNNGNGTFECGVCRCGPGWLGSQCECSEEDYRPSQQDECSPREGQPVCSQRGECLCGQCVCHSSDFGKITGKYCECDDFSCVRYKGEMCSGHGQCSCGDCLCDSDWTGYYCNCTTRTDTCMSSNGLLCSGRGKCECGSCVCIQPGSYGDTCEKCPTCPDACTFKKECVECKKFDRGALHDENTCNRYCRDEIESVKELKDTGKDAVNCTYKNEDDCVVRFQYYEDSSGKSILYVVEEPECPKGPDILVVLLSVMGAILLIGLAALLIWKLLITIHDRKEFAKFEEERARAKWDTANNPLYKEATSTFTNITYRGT
T3 sequence (P08648 42-1049, chain 1 of 2): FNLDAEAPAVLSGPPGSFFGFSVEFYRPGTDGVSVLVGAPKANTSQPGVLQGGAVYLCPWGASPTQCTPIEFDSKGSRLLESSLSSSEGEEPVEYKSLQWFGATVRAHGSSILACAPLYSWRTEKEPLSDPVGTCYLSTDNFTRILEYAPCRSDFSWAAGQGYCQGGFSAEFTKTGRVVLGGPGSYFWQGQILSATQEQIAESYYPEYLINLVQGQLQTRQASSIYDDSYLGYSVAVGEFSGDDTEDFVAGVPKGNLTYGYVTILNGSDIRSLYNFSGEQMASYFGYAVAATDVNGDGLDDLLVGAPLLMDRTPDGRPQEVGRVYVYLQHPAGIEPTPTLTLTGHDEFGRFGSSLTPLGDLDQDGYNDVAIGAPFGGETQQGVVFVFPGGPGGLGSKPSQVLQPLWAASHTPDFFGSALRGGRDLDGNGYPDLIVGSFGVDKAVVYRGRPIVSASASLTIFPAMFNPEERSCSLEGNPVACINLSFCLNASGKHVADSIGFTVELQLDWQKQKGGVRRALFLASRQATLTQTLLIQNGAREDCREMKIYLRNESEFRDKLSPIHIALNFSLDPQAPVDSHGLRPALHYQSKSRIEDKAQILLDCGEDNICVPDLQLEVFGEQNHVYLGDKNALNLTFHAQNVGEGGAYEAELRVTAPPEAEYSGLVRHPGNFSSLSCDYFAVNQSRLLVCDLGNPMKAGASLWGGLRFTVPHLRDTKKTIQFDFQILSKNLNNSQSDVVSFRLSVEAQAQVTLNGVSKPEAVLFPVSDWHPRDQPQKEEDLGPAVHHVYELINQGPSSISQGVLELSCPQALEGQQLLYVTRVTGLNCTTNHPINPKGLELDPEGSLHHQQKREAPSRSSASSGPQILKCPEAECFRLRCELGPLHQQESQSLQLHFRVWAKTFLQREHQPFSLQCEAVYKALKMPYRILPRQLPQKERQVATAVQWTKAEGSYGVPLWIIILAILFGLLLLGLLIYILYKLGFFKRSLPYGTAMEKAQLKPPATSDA
T3 sequence (P05556 21-798, chain 2 of 2): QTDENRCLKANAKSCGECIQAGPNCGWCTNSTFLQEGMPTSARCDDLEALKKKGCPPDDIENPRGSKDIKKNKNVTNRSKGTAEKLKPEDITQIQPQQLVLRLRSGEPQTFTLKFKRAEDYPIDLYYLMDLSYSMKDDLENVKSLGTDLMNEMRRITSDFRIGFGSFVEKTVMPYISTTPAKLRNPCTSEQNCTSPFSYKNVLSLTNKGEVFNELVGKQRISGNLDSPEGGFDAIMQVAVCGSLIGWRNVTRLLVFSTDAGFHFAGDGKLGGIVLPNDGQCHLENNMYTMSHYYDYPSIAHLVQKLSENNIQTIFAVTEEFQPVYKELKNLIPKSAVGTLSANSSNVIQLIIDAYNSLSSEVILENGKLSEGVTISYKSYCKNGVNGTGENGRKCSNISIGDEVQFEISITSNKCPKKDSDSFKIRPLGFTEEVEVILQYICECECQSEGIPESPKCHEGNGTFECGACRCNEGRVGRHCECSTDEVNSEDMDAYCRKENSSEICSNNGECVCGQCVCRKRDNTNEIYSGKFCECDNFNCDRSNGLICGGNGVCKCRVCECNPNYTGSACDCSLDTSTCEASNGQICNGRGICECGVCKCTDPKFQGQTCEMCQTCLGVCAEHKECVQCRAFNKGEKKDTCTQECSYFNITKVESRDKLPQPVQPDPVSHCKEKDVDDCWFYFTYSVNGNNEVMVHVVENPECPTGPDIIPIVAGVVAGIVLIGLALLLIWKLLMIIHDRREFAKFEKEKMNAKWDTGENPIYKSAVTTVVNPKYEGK

Kd [1]: 210 pM | EC50 [2]: 0.7 µg/mL | Kd [3]: 130 pM | binding result [4]: no binding | binding result [5]: no binding | Kd [6]: 250 pM | Kd [7]: 25 pM | Kd [8]: 1300 pM | fold higher affinity than for αvβ3 purified integrin [9]: ~8 fold | Kd [10]: 1000 pM
B1: CNTO 95 (antibody, V domains shown)
VH: QVQLVESGGGVVQPGRSRRLSCAASGFTFSRYTMHWVRQAPGKGLEWVAVISFDGSNKYYVDSVKGRFTISRDNSENTLYLQVNILRAEDTAVYYCAREARGSYAFDIWGQGTMVTVSS
VL: EIVLTQSPATLSLSPGERATLSCRASQSVSSYLAWYQQKPGQAPRLLIYDASNRATGIPARFSGSGSGTDFTLTISSLEPEDFAVYYCQQRSNWPPFTFGPGTKVDIK
notes: Fully human IgG1 kappa from a transgenic mouse hybridoma; also called GenO95; C371A
